Data as given in paper PMC7790537.

How the values were obtained:
[1] = biological target: recombinant trimeric HA of A/New Caledonia/20/1999 (H1N1) (influenza A virus A/New Caledonia/20/1999 (H1N1)) (UniProt Q6WG00)
[2] = biological target: recombinant trimeric HA of A/Victoria/210/2009 (H3N2) (influenza A virus A/Victoria/210/2009 (H3N2))

Substance: Fab-deficient (ΔFab) IgA1 monomer (domain or fragment)
- HI activity, minimum HI concentration, NC20 virus [1]: > 500 µg/mL
- HI activity, minimum HI concentration, Vic210 virus [2]: 794 µg/mL
- NT activity, minimum virus-neutralizing concentration, Vic210 virus [2]: > 500 µg/mL

Substance: Fab-deficient (ΔFab) IgA2m2 monomer (domain or fragment)
- HI activity, minimum HI concentration, NC20 virus [1]: > 500 µg/mL
- HI activity, minimum HI concentration, Vic210 virus [2]: 500 µg/mL
- NT activity, minimum virus-neutralizing concentration, Vic210 virus [2]: > 500 µg/mL
